Patent US20040229260

Experiments:
[1] = molecular target: protein encoded by the partial P43 cDNA clone
[2] = molecular target: T1, protein encoded by clone L20 (identical to amino acids 104-420 of NEFA), P80303
T1 chain: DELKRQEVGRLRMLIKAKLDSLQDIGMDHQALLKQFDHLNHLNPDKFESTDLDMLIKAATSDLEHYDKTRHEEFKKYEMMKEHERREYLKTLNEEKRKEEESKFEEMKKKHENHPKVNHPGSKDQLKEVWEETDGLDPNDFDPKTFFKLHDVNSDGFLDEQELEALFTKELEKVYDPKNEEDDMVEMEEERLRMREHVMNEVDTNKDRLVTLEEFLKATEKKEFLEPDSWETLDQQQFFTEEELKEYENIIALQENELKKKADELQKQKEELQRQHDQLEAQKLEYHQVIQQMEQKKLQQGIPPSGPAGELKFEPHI

[3] = molecular target: T2, polypeptide encoded by clone J2 (partial sequence of putative human N-acetylglucosamine-6-phosphate deacetylase)
T2 chain: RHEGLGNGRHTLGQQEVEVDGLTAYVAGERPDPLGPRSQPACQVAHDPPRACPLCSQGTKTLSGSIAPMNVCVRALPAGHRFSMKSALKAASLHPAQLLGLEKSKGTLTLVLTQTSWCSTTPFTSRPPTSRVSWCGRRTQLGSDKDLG

[4] = molecular target: protein encoded by clone L12
[5] = molecular target: protein encoded by clone B11 (cDNA insert homologous to the C-terminal end of CTP-Phosphoenolamine cytidylyltransferase), Q99447
[6] = molecular target: T3, protein encoded by clone B33 (cDNA insert homologous to C-terminus of Nucleobindin), Q02818
T3 chain: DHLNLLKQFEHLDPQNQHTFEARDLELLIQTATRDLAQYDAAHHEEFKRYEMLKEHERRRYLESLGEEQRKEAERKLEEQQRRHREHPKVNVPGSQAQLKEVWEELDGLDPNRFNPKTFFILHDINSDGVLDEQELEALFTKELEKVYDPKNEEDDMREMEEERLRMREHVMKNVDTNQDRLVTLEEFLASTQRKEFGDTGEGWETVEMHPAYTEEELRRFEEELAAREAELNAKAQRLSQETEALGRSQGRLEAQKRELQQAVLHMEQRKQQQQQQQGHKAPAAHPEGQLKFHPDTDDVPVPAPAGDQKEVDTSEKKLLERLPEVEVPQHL

[7] = molecular target: T4, bacterially produced caspase-8 (in-vitro protease assay of Example 2.4), Q14790
T4 chain: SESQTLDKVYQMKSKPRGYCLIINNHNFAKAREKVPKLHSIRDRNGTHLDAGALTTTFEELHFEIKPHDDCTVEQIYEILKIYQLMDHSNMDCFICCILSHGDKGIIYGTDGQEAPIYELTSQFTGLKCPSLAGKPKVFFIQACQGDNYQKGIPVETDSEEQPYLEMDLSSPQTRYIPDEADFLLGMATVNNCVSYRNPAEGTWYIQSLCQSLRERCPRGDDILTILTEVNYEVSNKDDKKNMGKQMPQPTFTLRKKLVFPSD

protein encoded by clone B11 (cDNA insert homologous to the C-terminal end of CTP-Phosphoenolamine cytidylyltransferase), Q99447, sequence (Q99447 213-389): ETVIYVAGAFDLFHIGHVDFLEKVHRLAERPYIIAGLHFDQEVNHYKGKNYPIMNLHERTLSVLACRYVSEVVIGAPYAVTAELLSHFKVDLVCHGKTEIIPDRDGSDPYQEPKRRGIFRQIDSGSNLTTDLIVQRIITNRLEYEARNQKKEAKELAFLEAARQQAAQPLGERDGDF

B1: caspase 9 expressed in E. coli as Histidine tagged subunit 2-subunit 1 (S2-S1) fusion protein (protein)
chain: GALESLRGNADLAYILSMEPCGHCLIINNVNFCRESGLRTRTGSNIDCEKLRRRFSSLHFMVEVKGDLTAKKMVLALLELAQQDHGALDCCVVVILSHGCQASHLQFPGAVYGTDGCPVSVEKIVNIFNGTSCPSLGGKPKLFFIQACGGEQKDHGFEVASTSPEDESPGSNPEPDATPFQEGLRTFDQLDAISSLPTPSDIFVSYSTFPGFVSWRDPKSGSWYVETLDDIFEQWAHSEDLQSLLLRVANAVSVKGIYKQMPGCFNFLRKKLFFKTS
Q: With B1 as the protein, how does the “cleavage in the protease assay with bacterial lysate (1 or 4 RU)” value [1] read?
A: Its value is “it was not cleaved by caspase-3 nor by caspase-9”.

B2: bacterially produced caspase-8 (in-vitro protease assay of Example 2.4) (protein)
chain: T4 chain
Q: Which results are given for B2?
A: cleavage in vitro [2]: Clone L20 is cleaved by caspase 8 both in-vitro and in-vivo; cleavage in vitro [3]: The polypeptide encoded by Clone J2 is cleaved in-vitro by caspase-8; cleavage in the in-vitro protease assay (35S labeled protein, SDS-PAGE, autoradiography) [4]: Clone L12 is cleaved in-vitro by caspase-8 as shown by an in-vitro protease assay; cleavage in the in-vitro protease assay [5]: Clone B11 was cleaved in-vitro by caspase-8 as demonstrated in the assay described in the above-mentioned Example 2.4; cleavage in vitro [6]: Clone B33 was cleaved by caspase-8 both in-vitro and in-vivo

B3: caspase 3 expressed in E. coli as Histidine tagged subunit 2-subunit 1 (S2-S1) fusion protein (protein)
chain: SGISLDNSYKMDYPEMGLCIIINNKNFHKSTGMTSRSGTDVDAANLRETFRNLKYEVRNKNDLTREEIVELMRDVSKEDHSKRSSFVCVLLSHGEEGIIFGTNGPVDLKKITNFFRGDRCRSLTGKPKLFIIQACRGTELDCGIETDSGVDDDMACHKIPVEADFLYAYSTAPGYYSWRNSKDGSWFIQSLCAMLKQYADKLEFMHILTRVNRKVATEFESFSFDATFHAKKQIPCIVSMLTKELYFYH
Q: For B3, which “cleavage in the protease assay with bacterial lysate (1 or 4 RU)” value [1] is on record?
A: Its value is “it was not cleaved by caspase-3 nor by caspase-9”.

B4: protein encoded by clone L5 (Tip60, Tat interacting protein 60 kDa, lacking amino acids 94 to 145) (protein)
chain: MAEVGEIIEGCRLPVLRRNQDNEDEWPLAEILSVKDISGRKLFYVHYIDFNKRLDEWVTHERLDLKKIQFPKKEAKTPTKNGLPGSRPGSPEREVKRKVEVVSPATPVPSETAPASVFPQNGAARRAVAAQPGRKRKSNCLGTDEDSQDSSDGIPSAPRMTGSLVSDRSHDDIVTRMKNIECIELGRHRLKPWYFSPYPQELTTLPVLYLCEFCLKYGRSLKCLQRHLTKCDLRHPPGNEIYRKGTISFFEIDGRKNKSYSQNLCLLAKCFLDHKTLYYDTDPFLFYVMTEYDCKGFHIVGYFSKEKESTEDYNVACILTLPPYQRRGYGKLLIEFSYELSKVEGKTGTPEKPLSDLGLLSYRSYWSQTILEILMGLKSESGERPQITINEISEITSIKKEDVISTLQYLNLINYYKGQYILTLSEDIVDGHERAMLKRLLRIDSKCLHFTPKDWSKRGKW
Q: B4 was tested. Which “cleavage in the in-vitro protease assay” value [7] did it give?
A: The value was “Clone L5 was cleaved in-vitro by caspase-8 in the in-vitro protease assay described in Example 2.4”.
